Test results as given in patent US20170190753A1 (LABORATOIRE FRANCAIS DU FRACTIONNEMENT ET DES …, published 2017).

Molecular target: C3 convertase complex (UniProt P01024 23-1663; P00751 260-764)
Test: cell-based or functional assay
Wherever C3 convertase activity % of the control is given: test concentration or dose not given here.

Chain of C3 convertase complex (P01024 23-1663, chain 1 of 2): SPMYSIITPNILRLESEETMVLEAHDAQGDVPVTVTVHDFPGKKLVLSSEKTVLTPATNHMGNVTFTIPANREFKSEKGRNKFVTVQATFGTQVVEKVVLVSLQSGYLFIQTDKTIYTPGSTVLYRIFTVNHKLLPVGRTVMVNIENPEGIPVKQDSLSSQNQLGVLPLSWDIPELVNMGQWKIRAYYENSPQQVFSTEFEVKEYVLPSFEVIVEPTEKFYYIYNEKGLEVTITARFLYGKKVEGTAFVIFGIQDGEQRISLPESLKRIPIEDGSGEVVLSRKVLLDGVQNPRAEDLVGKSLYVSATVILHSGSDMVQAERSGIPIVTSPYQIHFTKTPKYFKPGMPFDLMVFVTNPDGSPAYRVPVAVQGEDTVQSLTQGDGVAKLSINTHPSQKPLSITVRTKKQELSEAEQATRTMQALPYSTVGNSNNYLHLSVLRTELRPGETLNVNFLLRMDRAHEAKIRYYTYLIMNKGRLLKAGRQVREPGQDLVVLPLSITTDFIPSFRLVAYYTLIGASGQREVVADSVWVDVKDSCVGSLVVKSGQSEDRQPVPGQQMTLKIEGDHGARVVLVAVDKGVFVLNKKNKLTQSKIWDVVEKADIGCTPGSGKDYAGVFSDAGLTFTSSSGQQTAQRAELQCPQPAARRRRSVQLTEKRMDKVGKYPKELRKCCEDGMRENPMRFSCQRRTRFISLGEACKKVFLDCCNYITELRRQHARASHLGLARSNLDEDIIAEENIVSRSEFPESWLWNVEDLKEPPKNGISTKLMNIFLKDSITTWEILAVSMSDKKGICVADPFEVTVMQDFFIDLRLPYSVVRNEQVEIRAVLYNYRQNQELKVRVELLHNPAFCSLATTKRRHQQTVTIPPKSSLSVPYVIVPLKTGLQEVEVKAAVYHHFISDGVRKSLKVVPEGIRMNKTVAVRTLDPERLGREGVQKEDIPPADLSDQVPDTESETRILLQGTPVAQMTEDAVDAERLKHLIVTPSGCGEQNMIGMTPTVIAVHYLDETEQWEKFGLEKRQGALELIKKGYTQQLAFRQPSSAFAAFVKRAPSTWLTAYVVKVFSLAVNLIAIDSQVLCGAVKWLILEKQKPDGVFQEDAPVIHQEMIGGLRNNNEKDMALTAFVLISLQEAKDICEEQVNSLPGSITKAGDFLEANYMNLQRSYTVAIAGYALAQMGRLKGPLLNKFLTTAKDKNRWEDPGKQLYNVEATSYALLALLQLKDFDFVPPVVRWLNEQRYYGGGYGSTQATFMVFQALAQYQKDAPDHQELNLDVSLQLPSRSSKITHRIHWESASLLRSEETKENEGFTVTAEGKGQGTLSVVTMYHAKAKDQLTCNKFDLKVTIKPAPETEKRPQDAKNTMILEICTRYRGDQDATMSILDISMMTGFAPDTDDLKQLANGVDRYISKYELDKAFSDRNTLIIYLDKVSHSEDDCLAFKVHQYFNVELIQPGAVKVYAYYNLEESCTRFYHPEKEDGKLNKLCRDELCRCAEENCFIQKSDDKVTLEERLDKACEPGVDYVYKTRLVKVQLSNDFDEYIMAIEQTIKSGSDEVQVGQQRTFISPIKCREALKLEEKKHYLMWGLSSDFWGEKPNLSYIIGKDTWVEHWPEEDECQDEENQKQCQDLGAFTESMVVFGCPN
Chain of C3 convertase complex (P00751 260-764, chain 2 of 2): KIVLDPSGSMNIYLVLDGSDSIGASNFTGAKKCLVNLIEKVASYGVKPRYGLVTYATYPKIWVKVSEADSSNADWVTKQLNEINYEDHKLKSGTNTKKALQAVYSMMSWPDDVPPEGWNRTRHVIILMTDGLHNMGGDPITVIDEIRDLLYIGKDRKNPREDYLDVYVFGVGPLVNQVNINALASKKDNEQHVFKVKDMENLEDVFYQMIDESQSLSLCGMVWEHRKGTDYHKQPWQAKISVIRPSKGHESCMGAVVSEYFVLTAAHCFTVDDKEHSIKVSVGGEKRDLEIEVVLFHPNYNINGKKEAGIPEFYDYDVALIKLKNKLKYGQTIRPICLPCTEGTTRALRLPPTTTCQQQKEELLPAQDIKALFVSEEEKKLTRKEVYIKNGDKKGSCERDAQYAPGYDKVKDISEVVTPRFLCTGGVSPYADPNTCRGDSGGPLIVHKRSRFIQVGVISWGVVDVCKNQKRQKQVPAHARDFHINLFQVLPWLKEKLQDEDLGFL

B1: pCEP4-1NT9-10CT20 (other)
chain: EDCNELPPRRNTEILTGSWSDQTYPEGTQAIYKCRPGYRSLGNVIMVCRKGEWVALNPLRKCQKRPCGHPGDTPFGTFTLTGGNVFEYGVKAVYTCNEGYQLLGEINYRECDTDGWTNDIPICEVVKCLPVTAPENGKIVSSAMEPDREYHFGQAVRFVCNSGYKIEGDEEMHCSDDGFWSKEKPKCVEISCKSPDVINGSPISQKIIYKENERFQYKCNMGYEYSERGDAVCTESGWRPLPSCEEKSCDNPYIPNGDYSPLRIKHRTGDEITYQCRNGFYPATRGNTAKCTSTGWIPAPRCTLKPCDYPDIKHGGLYHENMRRPYFPVAVGKYYSYYCDEHFETPSGSYWDHIHCTQDGWSPAVPCLRKCYFPYLENGYNQNYGRKFVQGKSIDVACHPGYALPKAQTTVTCMENGWSPTPRCIRVKTCSKSSIDIENGFISESQYTYALKEKAKYQCKLGYVTADGETSGSITCGKDGWSAQPTCIKSCDIPVFMNARTKNDFTWFKLNDTLDYECHDGYESNTGSTTGSIVCGYNGWSDLPICYEREGASGCELPKIDVHLVPDRKKDQYKVGEVLKFSCKPGFTIVGPNSVQCYHFGLSPDLPICKEQVQSCGPPPELLNGNVKEKTKEEYGHSEVVEYYCNPRFLMKGPNKIQCVDGEWTTLPVCIVEESTCGDIPELEHGWAQLSSPPYYYGDSVEFNCSESFTMIGHRSITCIHGVWTQLPQCVAIDKLKKCKSSNLIILEEHLKNKKEFDHNSNIRYRCRGKEGWIHTVCINGRWDPEVNCSMAQIQLCPPPPQIPNSHNMTTTLNYRDGEKVSVLCQENYLIQEGEEITCKDGRWQSIPLCVEKIPCSQPPQIEHGTINSSRSSQESYAHGTKLSYTCEGGFRISEENETTCYMGKWSSPPQCEGLPCKSPPEISHGVVAHMSDSYQYGEEVTYKCFEGFGIDGPAIAKCLGEKWSHPPSCIKTDCLSLPSFENAIPMGEKKDVYKAGEQVTYTCATYYKMDGASNVTCINSRWTGRPTCRDTSCVNPPTVQNAYIVSRQMSKYPSGERVRYQCRSPYEMFGDEEVMCLNGNWTEPPQCKDSTGKCGPPPPIDNGDITSFPLSVYAPASSVEYQCQNLYQLEGNKRITCRNGQWSEPPKCLHPCVISREIMENYNIALRWTAKQKLYSRTGESVEFVCKRGYRLSSRSHTLRTTCWDGKLEYPTCAKRGGSGHHHHHH
C3 convertase activity % of the control: 64 % of the control
C3 convertase activity IC50: 0.552 µg/mL

B2: pCEP4-1NT9-14CT20 (other)
chain: EDCNELPPRRNTEILTGSWSDQTYPEGTQAIYKCRPGYRSLGNVIMVCRKGEWVALNPLRKCQKRPCGHPGDTPFGTFTLTGGNVFEYGVKAVYTCNEGYQLLGEINYRECDTDGWTNDIPICEVVKCLPVTAPENGKIVSSAMEPDREYHFGQAVRFVCNSGYKIEGDEEMHCSDDGFWSKEKPKCVEISCKSPDVINGSPISQKIIYKENERFQYKCNMGYEYSERGDAVCTESGWRPLPSCEEKSCDNPYIPNGDYSPLRIKHRTGDEITYQCRNGFYPATRGNTAKCTSTGWIPAPRCTLKPCDYPDIKHGGLYHENMRRPYFPVAVGKYYSYYCDEHFETPSGSYWDHIHCTQDGWSPAVPCLRKCYFPYLENGYNQNYGRKFVQGKSIDVACHPGYALPKAQTTVTCMENGWSPTPRCIRVKTCSKSSIDIENGFISESQYTYALKEKAKYQCKLGYVTADGETSGSITCGKDGWSAQPTCIKSCDIPVFMNARTKNDFTWFKLNDTLDYECHDGYESNTGSTTGSIVCGYNGWSDLPICYEREGASGCPPPPQIPNSHNMTTTLNYRDGEKVSVLCQENYLIQEGEEITCKDGRWQSIPLCVEKIPCSQPPQIEHGTINSSRSSQESYAHGTKLSYTCEGGFRISEENETTCYMGKWSSPPQCEGLPCKSPPEISHGVVAHMSDSYQYGEEVTYKCFEGFGIDGPAIAKCLGEKWSHPPSCIKTDCLSLPSFENAIPMGEKKDVYKAGEQVTYTCATYYKMDGASNVTCINSRWTGRPTCRDTSCVNPPTVQNAYIVSRQMSKYPSGERVRYQCRSPYEMFGDEEVMCLNGNWTEPPQCKDSTGKCGPPPPIDNGDITSFPLSVYAPASSVEYQCQNLYQLEGNKRITCRNGQWSEPPKCLHPCVISREIMENYNIALRWTAKQKLYSRTGESVEFVCKRGYRLSSRSHTLRTTCWDGKLEYPTCAKRGGSGHHHHHH
C3 convertase activity % of the control: 64 % of the control
C3 convertase activity IC50: 0.57 µg/mL
